Reference: publication PMC6376114, “The Y. bercovieri Anbu crystal structure sheds light on the evolution of highly (pseudo)symmetric multimers” (Journal of molecular biology, 2017)
Several values for one entry are separate records, joined by “and”; a condition that tells them apart may be missing. Equal entries are not always repeated.

What was measured:
YbATP-grasp [1] = molecular target: T1, YbATP-grasp (Yersinia bercovieri, UniProt A0ABP2E091); assay: […]-orthophosphate release, thin-layer chromatography and autoradiography; type: biochemical; conditions: 50 mM Tris pH 7.5, 150 mM KCl, 5 mM MgCl2, 1 mM ATP, RT; labelled compound
T1 construct: gene yberc0001_40; N-terminally His-tagged (pQLinkH), E. coli ER2566 host; 780 kDa, 14-mer by sedimentation equilibrium; gene from the four-gene Anbu operon (ATP-grasp, alphaE, transglutaminase, Anbu)
T1 sequence (A0ABP2E091 1-478): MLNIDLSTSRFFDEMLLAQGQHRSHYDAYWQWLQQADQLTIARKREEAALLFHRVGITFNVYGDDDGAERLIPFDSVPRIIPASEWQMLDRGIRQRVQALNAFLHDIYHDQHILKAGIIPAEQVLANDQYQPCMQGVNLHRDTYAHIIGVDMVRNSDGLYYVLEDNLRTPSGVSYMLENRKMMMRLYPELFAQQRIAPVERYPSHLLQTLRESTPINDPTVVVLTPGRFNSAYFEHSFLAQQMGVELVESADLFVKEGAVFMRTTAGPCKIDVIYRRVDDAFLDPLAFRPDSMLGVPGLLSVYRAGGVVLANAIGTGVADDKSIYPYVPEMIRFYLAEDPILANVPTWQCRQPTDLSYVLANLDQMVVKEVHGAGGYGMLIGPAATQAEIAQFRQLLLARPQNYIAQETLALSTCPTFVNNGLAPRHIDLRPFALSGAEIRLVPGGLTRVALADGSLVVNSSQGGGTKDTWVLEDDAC

YbATP-grasp [2] = molecular target: T1, YbATP-grasp; assay: differential scanning fluorimetry (thermofluor); type: binding; conditions: strong destabilization in presence of ATP; shift size not given
[3] = molecular target: ATP-grasp protein encoded in the Y. bercovieri Anbu operon, N-terminally His-tagged (Yersinia bercovieri); assay: AUC; sedimentation equilibrium of YbATP-grasp at 4000, 7000 and 9000 rpm, buffer D in the reference sector, global fit (SEDPHAT)
[4] = molecular target: Yersinia bercovieri Anbu (ancestral beta subunit), V14A/G107H variant (Yersinia bercovieri); assay: crystal structure; sitting drop vapor diffusion, 100 mM BIS-TRIS propane/HCl pH 6.7-7.1, 200 mM Na2SO4, 18% PEG 3350, 7.5% ethylene glycol; space group P21, 2.5 Å, two 14-mers in the asymmetric unit
[5] = molecular target: Yersinia bercovieri Anbu (ancestral beta subunit), V14A/G107H variant (Yersinia bercovieri); assay: AUC; sedimentation equilibrium of YbAnbu at 4000, 7000 and 9000 rpm, buffer B in the reference sector, global fit (SEDPHAT)
[6] = molecular target: Yersinia bercovieri Anbu (ancestral beta subunit), V14A/G107H variant (Yersinia bercovieri); assay: SEC; Superose 6 30/100 column, 0.5 ml/min, buffer D (50 mM Tris pH 7.5, 300 NaCl, 1 mM EDTA); calibrated with BioRad standards, yeast 20S and EcHslV
[7] = molecular target: Yersinia bercovieri Anbu (ancestral beta subunit), V14A/G107H variant (Yersinia bercovieri); assay: AUC; sedimentation velocity, 40,000 rpm, 20 °C, buffer D, continuous c(s) distribution model (SEDFIT)

## Nc1ncnc2c1ncn2[C@@H]1O[C@H](COP(=O)(O)OP(=O)(O)OP(=O)(O)O)[C@@H](O)[C@H]1O [ATP]
YbATP-grasp [1]
  32P-orthophosphate release, thin-layer chromatography and autoradiography: The YbATP-grasp protein led to robust production of orthophosphate
YbATP-grasp [2]
  differential scanning fluorimetry (thermofluor): indicated strong destabilization of YbATP-grasp in the presence of ATP, but not ADP

## ATP-grasp protein encoded in the Y. bercovieri Anbu operon, N-terminally His-tagged (natural protein)
[3]
  stoichiometry N: 14

## Yersinia bercovieri Anbu (ancestral beta subunit), V14A/G107H variant (natural protein)
[4]
  stoichiometry N: 14
[5]
  stoichiometry N: 14
[6]
  stoichiometry N: 9 and 5 and 14
[7]
  stoichiometry N: 12
